Measurements taken from patent US12723255B2, “Herbicide tolerance genes and methods of use thereof” (priority 2014, dated 2026).
Substitutions are numbered along the chain they refer to. Where “and” joins values, the source holds several entries; their conditions need not be identical. Equal entries are not always repeated. Where two headings read alike, the source gives them in different places.

B1: MON-HT55: engineered oxygenase protein, amino acid sequence SEQ ID NO:11 (protein)
chain: MHAALSPLSQRFERIAVQPLTGVLGAEITGVDLREPLDDSTWNEILDAFHTYQVIYFPGQAITNEQHIAFSRRFGPVDPVPLLKSIEGYPEVQMIRREANESGRVIGENWHTDSTFLDAPPAAVVMYAKEIPPYGGDTLFTSMYTAWETLSPTMQATIEGLNVVHSATRVFGSLYQAQNRRFSNTSVKVMDVDAGDRETVHPLVVTHPETGRKGLYVNQVYCQRIEGMSEKESEPLLSFLFAHATKPEFTCRVRWQEGDVLVWDNLCTQHYAVPDYAGKFRYLTRTTVGGVRPAR
B2: MON-HT7: engineered oxygenase protein, amino acid sequence SEQ ID NO:34 (protein)
chain: MHAALTPLTNKYRFIDVQPLTGVLGAEITGVDLREPLDDSTWNEILDAFHTYQVIYFPGQAITNEQHIAFSRRFGPVDPVPLLKSIEGYPEVQMIRREANESGRVIGDDWHADSTFLDAPPAAVVMRAIEVPEYGGDTGFLSMYSAWETLSPTMQATIEGLNVVHSATKVFGSLYQATNWRFSNTSVKVMDVDAGDRETVHPLVVTHPVTGRRALYCNQVYCQKIQGMTDAESKSLLQFLYEHATKFDFTCRVRWKKDQVLVWDNLCTMHRSVPDYAGKFRYLTRTTVAGDKPSR
B3: MON-HT8: engineered oxygenase protein, amino acid sequence SEQ ID NO:37 (protein)
chain: B2 chain with L82I, A112T, A277G, G278N, K279A
B4: MON-HT9: engineered oxygenase protein, amino acid sequence SEQ ID NO:40 (protein)
chain: MHAALTPLTNKYRFIDVQPLTGVLGAEITGVDLREPLDDSTWNEILDAFHTYQVIYFPAQQITNEQHISFSRRFGPVDPVPLLKSIEGYPEVQMIRREANESGRILGDDWHTDSTFLDAPPAAVVMRAIEVPEYGGDTGFLSMYSAWDTLSDTMKATIEGLNVVHSATRVFGSLYQAQNWRFSNTSVKVMDVDAGDRETVHPLVVSHPVTGRRALYCNQVYCQRIEGMTDAESKCLLQFLYEHATKFDFTCRVRWKKDQVLVWDNLCTMHRAVPDYAGKFRYLTRTTVAGDRPAR
B5: MON-HT10: engineered oxygenase protein, amino acid sequence SEQ ID NO:43 (protein)
chain: B4 chain with T21C, A59G, Q61A, S69A, R271L, A277D, R292K, A294S

Key:
[1] = kinetic analysis, non-endpoint assay at 23° C.; assay type: biochemical; details: for Vmax Quizalofop / Km / Vmax 2,4-D / Km 2,4-D: standard error in parenthetical
From the text: For the fifth screen, recombinant protein for each of the eleven engineered proteins was produced and purified for an in-depth biochemical analysis. This biochemical analysis included: (1) kinetic analysis (Vmax and Km), (2) activity assays over a range of temperatures, (3) protein melting analysis, (4) activity on additional AOPP herbicides substrates, and (5) mass spectrometry analysis on peptides to confirm identity. The biochemical analyses were also done with purified recombinant wild-type protein and MON-HT55 protein for comparison. For the kinetic analysis, a non-endpoint assay was conducted at 23° C. with either quizalofop-P or 2,4-D as substrate. The recombinant proteins for these assays were produced in bacteria and purified using a 6-His tag fused at the C-terminal end of the protein. Results of the kinetic analysis with either quizalofop-P or 2,4-D as substrate are presented for ten of the engineered proteins, wild-type protein, and MON-HT55 protein in Table 7 (standard error is shown in parenthetical). Vmax is expressed as specific activity, umol herbicide product mg enzyme-1 min-1; Km expressed as mM herbicide substrate. […] The differentiation of the protein kinetics for MON-HTI and MON-HT7 were surprising because there are only four amino acid differences between MON-HT1 and MON-HT7. Specifically, MON-HT1 has the following amino acids at the indicated position: 182; F105; T112; and V273, and MON-HT7 has the following amino acids at the indicated position: L82; V105; S112; and A273.
Kinetic analysis using a non-endpoint assay was conducted at 23° C. with either quizalofop-P or 2,4-D as substrate, as detailed above for purified protein of the wild-type enzyme, MON-HT1, MON-HT13, MON-HT15, and MON-HT17.

[2] = enzyme activity assay at 23° C. with purified enzyme; assay type: biochemical; details: for maximum activities for all four substrates compared with the wild-type enzyme: haloxyfop, fenoxaprop, fluazifop and dichlorprop; for maximum activity as a percentage of the wild-type enzyme's activity, Haloxyfop: purified enzyme; for maximum activity as a percentage of the wild-type enzyme's activity, Haloxyfop / maximum activity as a percentage of the wild-type enzyme's activity, Dichlorprop / maximum activity as a percentage of the wild-type enzyme's activity, Fenoxaprop / maximum activity as a percentage of the wild-type enzyme's activity, Fluazifop: wild-type set at 100%
Protocol: The enzyme activity of MON-HT protein variants with haloxyfop, fenoxaprop, fluazifop, and dichlorprop as substrates was determined using the enzyme activity assay conducted at 23° C. with purified enzyme. The activity was recorded as the maximum activity as a percentage of the wild-type enzyme's activity, which was set at 100%.

[3] = test system: F1 hybrid maize plants; assay: efficacy field trial for 2,4-D tolerance; assay type: in vivo; details: scale 0 to 100, with CTP unless label says no CTP; for average injury rating, V4 Growth Stage, 8x 2,4-D / average injury rating, V8 Growth Stage, 8x 2,4-D: 8 lb ae/acre at VE-V2, V4, V8; for average injury rating, V4 Growth Stage, 16x 2,4-D / average injury rating, V8 Growth Stage, 16x 2,4-D: 16 lb ae/acre at VE-V2, V4, V8
Protocol: Separate trait efficacy field trials for quizalofop-P and 2,4-D were conducted at two locations cach with F1 hybrid transgenic plants produced by crossing an inbred plant containing maize event MON89034 with an R1 plant containing MON-HT55 (with a CTP), MON-HTI (with or without a CTP), MON-HT2 (with or without a CTP), MON-HT3 (with a CTP), MON-HT4 (with a CTP), MON-HT5 (with a CTP), MON-HT6 (with a CTP), or MON-HT7 (with a CTP). Transgenic F1 hybrid plants containing maize events NK603×MON89034 were used for comparison as a control.
In the efficacy field trial for 2,4-D tolerance, one of four herbicide treatments was used: (1) 2,4-D amine at 2 lb ac/acre (2×) plus 0.25% v/v non-ionic surfactant (NIS) applied to VE to V2 followed by V4 followed by V8; (2) 2,4-D amine at 4 lb ac/acre (4×) plus 0.25% v/v NIS applied to VE to V2 followed by V4 followed by V8; (3) 2,4-D amine at 8 lb ac/acre (8×) plus 0.25% v/v NIS applied to VE to V2 followed by V4 followed by V8 maize; or (4) 2,4-D amine at 16 lb ac/acre (16×) plus 0.25% v/v NIS applied to VE to V2 followed by V4 followed by V8. Plots were visually rated as above. Tables 14 and 15 show the average injury ratings after herbicide application at V4 or V8 growth stage, respectively.

[4] = 23° C., purified His-tagged protein
[5] = 23° C., purified His-tagged protein, read-out: Km Quizalofop
[6] = NDB = activity not robust enough for kinetic characterization
[7] = NDB = activity not robust enough for kinetic characterization, read-out: Km 2,4-D

Row | Molecule | Vmax Quizalofop [1, 4] | Km [1, 5] [µM] | Vmax 2,4-D [1, 6] | Km [1, 7] [µM] | maximum activities for all four substrates compared with the wild-type enzyme [2] | maximum activity as a percentage of the wild-type enzyme's activity, Haloxyfop [2] [%] | maximum activity as a percentage of the wild-type enzyme's activity, Dichlorprop [2] [%] | maximum activity as a percentage of the wild-type enzyme's activity, Fenoxaprop [2] [%] | maximum activity as a percentage of the wild-type enzyme's activity, Fluazifop [2] [%] | average injury rating, V8 Growth Stage, 2x 2,4-D ([3]; 2 lb ae/acre at VE-V2, V4, V8) | average injury rating, V4 Growth Stage, 4x 2,4-D ([3]; 4 lb ae/acre at VE-V2, V4, V8) | average injury rating, V4 Growth Stage, 8x 2,4-D [3] | average injury rating, V8 Growth Stage, 8x 2,4-D [3] | average injury rating, V4 Growth Stage, 16x 2,4-D [3] | average injury rating, V8 Growth Stage, 16x 2,4-D [3] | Vmax for 2,4-D relative to the wild-type enzyme [1] | Vmax with quizalofop-P greater than the wild-type enzyme ([1]; 23° C.) | average injury rating, V4 Growth Stage, 2x 2,4-D ([3]; 2 lb ae/acre at VE-V2, V4, V8) | average injury rating, V8 Growth Stage, 4x 2,4-D ([3]; 4 lb ae/acre at VE-V2, V4, V8) | Km 2,4-D [1, 6]
1 | B1 | 0.44 (−0.04) umol herbicide product mg enzyme-1 min-1 | 320 | 0.03 (−0.02) umol herbicide product mg enzyme-1 min-1 | 690 | lower than, or equal to | 58 | 31 | 34 | 38 | 15.0 and 12.5 and 16.3 and 14.4 and 11.3 | 31.3 and 22.5 and 41.3 and 23.1 and 30.0 | 45.0 and 53.8 and 43.8 and 50.0 and 58.8 and 48.8 | 33.8 and 36.3 and 39.4 and 30.0 and 35.0 | 61.3 and 63.8 and 66.3 and 55.0 and 53.8 and 52.5 | 57.5 and 52.5 and 55.0 and 56.9 and 47.5 |  |  |  |  | 
2 | B2 | 1.94 (−0.12) umol herbicide product mg enzyme-1 min-1 | 330 | 0.04 (−0.01) umol herbicide product mg enzyme-1 min-1 | 60 |  |  |  |  |  | 2.0 | 1.3 | 5.8 | 9.3 | 12.5 | 20.0 | about half | approximately 40% | 1.3 | 2.8 | 
3 | B3 | 0.46 (−0.02) umol herbicide product mg enzyme-1 min-1 | 110 | 0.11 (−0.01) umol herbicide product mg enzyme-1 min-1 | 140 |  | 99 |  |  | 50 |  |  |  |  |  |  |  |  |  |  | 
4 | B4 | 0.53 (−0.02) umol herbicide product mg enzyme-1 min-1 | 100 | NDB |  | lower than, or equal to | 91 | 19 | 67 | 41 |  |  |  |  |  |  |  |  |  |  | NDB
5 | B5 | 0.78 (−0.05) umol herbicide product mg enzyme-1 min-1 | 130 | NDB |  |  |  | 29 |  | 48 |  |  |  |  |  |  |  |  |  |  | NDB
